This note sets out measurements from patent US20060228299A1 (University of Texas, published 2006).

This test deals with T1, murine β2GPI (in normal mouse serum) (mouse, UniProt Q01339 20-345).
T1 construct: mature; also called mouse β2GPI
T1 sequence (looked up): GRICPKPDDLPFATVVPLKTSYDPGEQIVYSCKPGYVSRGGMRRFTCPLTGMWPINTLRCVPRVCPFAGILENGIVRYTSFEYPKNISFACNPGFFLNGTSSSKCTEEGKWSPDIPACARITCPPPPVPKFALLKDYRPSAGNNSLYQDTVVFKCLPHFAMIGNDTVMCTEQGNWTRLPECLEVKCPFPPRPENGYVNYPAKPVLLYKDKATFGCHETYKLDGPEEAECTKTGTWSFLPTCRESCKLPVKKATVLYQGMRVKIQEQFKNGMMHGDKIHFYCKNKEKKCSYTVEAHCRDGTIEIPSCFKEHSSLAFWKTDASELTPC
The experiment in a line: immunoblot of 10% normal mouse serum.

B1: 3G4 mouse monoclonal antibody as used in Example XXX (converted to mouse IgG2a isotype, produced in NS0 cells) (antibody, V domains shown)
VH: EVQLQQSGPELEKPGASVKLSCKASGYSFTGYNMNWVKQSHGKSLEWIGHIDPYYGDTSYNQKFRGKATLTVDKSSSTAYMQLKSLTSEDSAVYYCVKGGYYGHWYFDVWGAGTTVTVSS
VL: DIQMTQSPSSLSASLGERVSLTCRASQDIGSSLNWLQQGPDGTIKRLIYATSSLDSGVPKRFSGSRSGSDYSLTISSLESEDFVDYYCLQYVSSPPTFGAGTKLELKR
notes: It was purified from serum-free media (SFM) or serum-containing media (SCM); also called 3G4 SFM; 3G4 SCM
For the molecule B1, the binding result is on record as “no binding (tested: 1 µg/ml)”.
